Laboratory results reported in patent US20210269546A1 (MOMENTA PHARMACEUTICALS, published 2021).

Columns and labels:
[1] = molecular target: T1, cynomolgus monkey CD38 (CHO cells stably expressing cyno CD38) (cynomolgus monkey, UniProt Q5VAN0 1-301); experiment: flow cytometry, VivoTag645-labeled, CHO cells stably expressing cyno CD38, 4 °C, 1 hour, gMFI
T1 construct: whole, on cells
Procedure: (§1) FIG. 26. […] Extent of cell surface binding was assessed by flow cytometry. […]

[2] = molecular target: T2, human CD38 on the cell surface (Raji and other human tumor cell lines) (human, UniProt P28907 1-300); experiment: flow cytometry, VivoTag645-labeled, human CD38 expressing Raji tumor cells, 4 °C, 1 hour, gMFI
T2 construct: whole, on cells; also called cell surface CD38
Procedure: as §1

T1 sequence (Q5VAN0 whole entry): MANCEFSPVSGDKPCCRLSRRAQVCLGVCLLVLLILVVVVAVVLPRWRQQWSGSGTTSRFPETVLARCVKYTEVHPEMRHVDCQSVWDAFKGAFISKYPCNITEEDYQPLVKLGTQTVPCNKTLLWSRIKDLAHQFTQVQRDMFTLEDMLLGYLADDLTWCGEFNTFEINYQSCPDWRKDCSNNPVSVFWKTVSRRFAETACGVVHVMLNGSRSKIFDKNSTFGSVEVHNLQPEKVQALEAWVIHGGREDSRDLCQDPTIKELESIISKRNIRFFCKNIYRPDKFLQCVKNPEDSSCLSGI

binding result [1]: binds
EC50 (read off the curve) [2]: ~0.8 nM
B1: S1A-AA-Cyno (anti-Cyno CD38 mAb) (antibody, V domains shown)
VH: QLLESGGGLVQPGGSLRLSCAASGFTFDDYGMSWVRQAPGKGLEWVSDISWNGGKTHYVDSVKGQFTISRDNSKNTLYLQMNSLRAEDTAVYYCARGSLFHDSSGFYFGHWGQGTLVTVSS
VL: QSVLTQPPSASGTPGQRVTISCSGSSSNIGDNYVSWYQQLPGTAPKLLIYRDSQRPSGVPDRFSGSKSGTSASLAISGLRSEDEADYYCQSYDSSLSGSVFGGGTKLTVLG
modifications: VivoTag645 dye label in the flow cytometry assays
notes: Surrogate anti-CD38 human monoclonal IgG1 antibody; VivoTag645-labeled in flow cytometry; also called SIA-AA-Cyno; S1A-AA-Cyno CD38
